Measurements: patent US10106589B2, “Compositions and methods for immunomodulation” (FUNDACIO INSTITUT D'INVESTIGACIO BIOMEDICA DE BELLVITGE …, priority 2011, dated 2018)

B1: C4BP α7β1: major C4BP isoform, 7 identical α-chains and 1 β-chain, purified from pooled human plasma (protein, UniProt P04003 49-597; P20851 18-252, looked up)
C4b-binding protein alpha …: NCGPPPTLSFAAPMDITLTETRFKTGTTLKYTCLPGYVRSHSTQTLTCNSDGEWVYNTFCIYKRCRHPGELRNGQVEIKTDLSFGSQIEFSCSEGFFLIGSTTSRCEVQDRGVGWSHPLPQCEIVKCKPPPDIRNGRHSGEENFYAYGFSVTYSCDPRFSLLGHASISCTVENETIGVWRPSPPTCEKITCRKPDVSHGEMVSGFGPIYNYKDTIVFKCQKGFVLRGSSVIHCDADSKWNPSPPACEPNSCINLPDIPHASWETYPRPTKEDVYVVGTVLRYRCHPGYKPTTDEPTTVICQKNLRWTPYQGCEALCCPEPKLNNGEITQHRKSRPANHCVYFYGDEISFSCHETSRFSAICQGDGTWSPRTPSCGDICNFPPKIAHGHYKQSSSYSFFKEEIIYECDKGYILVGQAKLSCSYSHWSAPAPQCKALCRKPELVNGRLSVDKDQYVEPENVTIQCDSGYGVVGPQSITCSGNRTWYPEVPKCEWETPEGCEQVLTGKRLMQCLPNPEDVKMALEVYKLSLEIEQLELQRDSARQSTLDKEL
C4b-binding protein beta chain: SDAEHCPELPPVDNSIFVAKEVEGQILGTYVCIKGYHLVGKKTLFCNASKEWDNTTTECRLGHCPDPVLVNGEFSSSGPVNVSDKITFMCNDHYILKGSNRSQCLEDHTWAPPFPICKSRDCDPPGNPVHGYFEGNNFTLGSTISYYCEDRYYLVGVQEQQCVDGEWSSALPVCKLIQEAPKPECEKALLAFQESKNLCEAMENFMQQLKESGMTMEELKYSLELKKAELKAKLL
B2: C4BP (β^−): C4BP isoforms lacking beta chain: C4BP (α7β0) or C4BP (α6β0) (protein, UniProt P04003 49-597, looked up)
C4b-binding protein alpha …: B1 C4b-binding protein alpha …

Assays:
allogeneic CD3+ T cells = experiment: Mixed leukocyte reaction ([3H]-thymidine incorporation); type: cell-based, human; design: key to Alloproliferation (T CD3^+): (−) negligible; (+) low; (++) moderate; (+++) high
Description: CD3^+ T cells (10^5/well) and C4BP-treated (α7β1 and α7β0), or Factor H-treated, and LPS-activated Mo-DCs were seeded in a 96-well round-bottom plate at various DC:T cell ratios (1:40, 1:80 and 1:160) and cultured in X-VIVO 15 medium (Biowittaker, Walkersville, Md.) supplemented with 100 μg/ml of streptomycin, 100 IU/ml of penicillin and 2 mM L-glutamine (all from Invitrogen) plus 2% Human AB Serum. Allospecific proliferation was measured after 5 days of incubation. At day 4, the […] [^3H]-thymidine (1 μCi/well, Perkin Elmer, Boston, Mass.) was added, followed by incubation for another 16 h. Labeled cells were then harvested onto glass-fiber filters with a Filtermate Harvester (Packard, Meriden, Conn.), and the T cell proliferation rate was determined by the amount of [^3H]-thymidine incorporation, which was measured in a TopCount NXT counter (Packard). Results are reported as the mean cpm±SD of thymidine incorporation in quadruplicate culture wells.

human Mo-DCs [1] = experiment: Flow cytometry of cell surface markers on treated, LPS-matured Mo-DCs; type: cell-based; design: key to HLA-DR / CD40 / CD83 / CD86 / CD14 / CD1a / CCR7: (−) negligible; (+) low; (++) moderate; (+++) high
Description: Peripheral blood mononuclear cells (PBMCs) were obtained from buffy coat preparations belonging to healthy donors from the Blood and Tissue Bank (Barcelona, Spain) after Ficoll-Paque™ density centrifugation (GE Healthcare Bio-Sciences AB; Uppsala, Sweden). Monocytes were purified by two different methods: 1) Cells were plated at 1×10^6 cells/ml in 60 mm culture plates (Corning, Spain) in RPMI without serum and allowed to adhere for 2 h at 37° C. in 5% CO2. The non-adherent cells were removed by washing in PBS. […] 2) Cells were purified using colloidal super-paramagnetic microbeads conjugated with monoclonal mouse anti-human CD14 antibodies (MACS, Miltenyi Biotec, Auburn, Calif., or EasySep® Positive Selection Cocktail, StemCell Technologies, Grenoble, France). The purity of CD14^+ cells was tested by CD14 staining and flow cytometry analysis (>90% CD14^+ cells). Monocyte-derived DCs (Mo-DCs) were generated supplementing the monocyte cultures with complete RPMI 1640 medium plus GM-CSF (800 UI/ml) and IL-4 (500 UI/ml) (both from Gentaur, Kampenhout, Belgium) at day 0 and day 3 of culture. For DC maturation, at day 5 iDCs were further stimulated for 48 h with 5 μg/ml LPS (Escherichia coli 055.B5, Sigma L2880, Copenhagen, Denmark).
Cell surface phenotypes were analyzed using the following monoclonal antibodies: FITC-conjugated anti-HLA-DR (Immu-357), FITC-conjugated anti-CD83 (HB15a), FITC-conjugated anti-CD14 (RMO52), PE-conjugated anti-CD40 (MAB89), PE-conjugated anti-CD1a (BL6), PE-conjugated anti-CD80 (MAB104), PE-conjugated anti-CD86 (HA5.2B7) (all from Beckman-Coulter), Alexa Fluor 488-conjugated anti-CCR7 (TG8/CCR7, Biolegend, San Diego, Calif.), and the respective isotype controls from the same commercial sources. After washing with PBS, cells were subsequently stained with 3 μl MoAb/10^5 cells in 100 μl of FACS buffer (PBS containing 1% BSA and 0.1% sodium azide) for 20 min at room temp. Stained cells were analysed using a FACScalibur (Becton Dickinson). Mo-DCs were gated according to forward scatter (FSC) and side scatter (SSC) parameters. The results were analysed using CellQuestPro software (Becton Dickinson).
Both the different C4BP isoforms (α7β1, α7β0 and α6β0), and Factor H were added at 2, 5 and 10 μg/ml throughout Mo-DC differentiation, maturation, or both. Namely, for the differentiation assays the proteins were added at day 0 and replenished at day 3. For the maturation assays the proteins were added at day 5, either alone or combined with LPS. Finally, for the differentiation plus maturation assays the proteins were added at days 0, 3 and 5 (at the last time point, combined with LPS).

immature Mo-DCs = experiment: Endocytic activity (DQ-OVA uptake); type: cell-based, human; design: key: (−) negligible; (+) low; (++) moderate; (+++) high; settings: functional assay
Description: To measure the phagocytic activity of iDCs, 2×10^5 cells/ml were resuspended in 100 μl of PBS and incubated with 4 μl of BODIPY FL-conjugated DQ-Ovalbumin (1 mg/ml, DQ-OVA, Molecular Probes, Leiden, Netherlands) at 37° C. or at 0° C. for 15 min. The incubations were stopped by adding 1 ml of cold FACS buffer. The cells were washed two times with cold FACS buffer and their fluorescence analyzed using a FACScalibur flow cytometer (Becton-Dickinson).

CD3+ T lymphocytes = experiment: Determination of CD4+ CD127low/negative CD25high Foxp3+ T cells; type: cell-based, human; settings: T cells stimulated 6 days with treated, LPS-matured DCs
Description: CD3^+ T lymphocytes were purified from mononuclear cells by negative selection using an EasySep® Human T Cell Enrichment Kit (StemCell Technologies) following the manufacturer's instructions. Purity was >95% in all experiments. Enriched T cells were plated (10^5 cells/well) in 96-well round-bottom plates. […] Stained cells were analysed using a FACSCanto II (Becton Dickinson) and the results were analysed using FlowJo software (Tree Star, Inc, OR, USA).

human Mo-DCs [2] = experiment: Apoptosis determination (Annexin V / 7-ADD); type: cell-based; design: key: (−) negligible; (+) low; (++) moderate; (+++) high; settings: viability; treated and LPS-induced DCs
Source text: Double staining using with the fluorescent dyes Annexin V (Annexin V-PE Apoptosis Detection Kit I, BD Pharmigen, San Diego, Calif.) and 7-amino-actinomycin D (7-ADD) (BD Pharmigen), and flow cytometry analysis, was employed to assess the viability/apoptosis status of C4BP α7β1-, C4BP α7β0-, recC4BP α6β0-, or Factor H-treated and untreated Mo-DCs.

[3] = surface marker, treated and LPS-induced DCs
[4] = treated throughout differentiation and maturation, LPS-matured

Molecule | allogeneic T cell proliferation (allogeneic CD3+ T cells; Mo-DCs pre-incubated and matured with LPS, DC:T 1:40, 1:80, 1:160, 5 days) | expression of surface markers (CD14, HLA-DR, CD40, CD80, CD83, CD86, CD1a) (human Mo-DCs [1]; treated throughout differentiation and maturation, LPS-matured, vs untreated mDC) | Endocytosis (DQ-OVA) (immature Mo-DCs) | percentage of CD4+Foxp3+ and CD25^high, CD127^low/negative cells (CD3+ T lymphocytes) | Alloproliferation (T CD3^+) (allogeneic CD3+ T cells; functional assay, treated and LPS-induced DCs) | Apoptosis after treatment (human Mo-DCs [2]) | surface receptor CCR7 on Mo-DCs (human Mo-DCs [1]; flow cytometry (MFI), LPS-matured) | CCR7 (human Mo-DCs [1]; [3]) | CD1a (human Mo-DCs [1]; [3]) | CD14 (human Mo-DCs [1]; [3]) | CD40 (human Mo-DCs [1]; [3]) | CD83 (human Mo-DCs [1]; [3]) | CD86 (human Mo-DCs [1]; [3]) | HLA-DR (human Mo-DCs [1]; [3]) | CD40 expression (human Mo-DCs [1]; [4]) | HLA-DR expression (human Mo-DCs [1]; [4])
B1 | maximal allogeneic T cell proliferation | no effect |  |  |  |  |  |  |  |  |  |  |  |  |  | 
B2 |  |  | + | significant increase | + | − | consistent down-regulation | ++ | + | + | ++ | + | + | +++ | unaltered | unaltered
